Results reported in patent US20110293618A1 (MEDICAL AND BIOLOGICAL LABORATORIES, published 2011).
Where a chain is given by its changes, count along the chain named. Each block holds one binder with its values, some of them ahead of it.

Assays:
[1] = target: T1, purified protein of the whole extracellular domain of human CLCP1 (amino acid positions 1 to 526), myc-His … (human, UniProt Q96PD2 67-526); test: ELISA on purified extracellular domain protein, culture supernatants
T1 construct: also called whole extracellular domain protein; complete extracellular domain protein; not shown: myc-His tag
T1 sequence: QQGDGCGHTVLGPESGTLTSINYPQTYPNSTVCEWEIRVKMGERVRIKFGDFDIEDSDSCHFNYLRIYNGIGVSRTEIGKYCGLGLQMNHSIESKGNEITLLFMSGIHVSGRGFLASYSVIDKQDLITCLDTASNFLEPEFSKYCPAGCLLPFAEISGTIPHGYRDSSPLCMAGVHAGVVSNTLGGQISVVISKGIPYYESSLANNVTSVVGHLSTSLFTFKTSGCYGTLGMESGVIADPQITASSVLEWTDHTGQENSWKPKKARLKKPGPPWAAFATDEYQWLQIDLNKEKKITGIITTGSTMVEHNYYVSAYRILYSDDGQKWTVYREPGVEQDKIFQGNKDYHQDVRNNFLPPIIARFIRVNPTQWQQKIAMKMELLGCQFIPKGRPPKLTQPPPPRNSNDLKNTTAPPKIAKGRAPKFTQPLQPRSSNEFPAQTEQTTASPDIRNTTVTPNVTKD
Description: Using the culture supernatants whose IgG concentrations had been determined, the activities of the chimeric antibody, humanized antibody, and serine-substituted humanized antibody were assessed and compared by ELISA for the purified protein of the extracellular domain of CLCP1 described in Example 21. […] Thus, humanized FA19-1 was successfully designed (FIGS. 42 and 43).

[2] = target: T2, E. coli-produced recombinant protein corresponding to aa 195-aa 461 in SEQ ID NO: 2 (human, UniProt Q96PD2 195-461); test: ELISA on purified E. coli fragment
T2 construct: pET28a expression system; vector-encoded tag residues not described
T2 sequence: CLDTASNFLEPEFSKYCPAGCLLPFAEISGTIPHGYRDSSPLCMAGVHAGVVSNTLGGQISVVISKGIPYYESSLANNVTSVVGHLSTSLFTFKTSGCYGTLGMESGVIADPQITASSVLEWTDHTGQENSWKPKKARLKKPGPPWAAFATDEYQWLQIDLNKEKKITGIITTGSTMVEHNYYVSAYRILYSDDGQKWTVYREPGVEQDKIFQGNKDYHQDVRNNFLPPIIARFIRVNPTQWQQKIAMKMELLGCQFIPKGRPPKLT
Description: (§1) Each antibody was assayed by ELISA using the purified proteins prepared described above.

[3] = target: T3, E. coli-produced recombinant protein corresponding to aa 195-aa 453 in SEQ ID NO: 2 (human, UniProt Q96PD2 195-453); test: ELISA on purified E. coli fragment
T3 construct: pET28a, BL21, urea-solubilised, TALON-purified; vector-encoded tag residues not described
T3 sequence: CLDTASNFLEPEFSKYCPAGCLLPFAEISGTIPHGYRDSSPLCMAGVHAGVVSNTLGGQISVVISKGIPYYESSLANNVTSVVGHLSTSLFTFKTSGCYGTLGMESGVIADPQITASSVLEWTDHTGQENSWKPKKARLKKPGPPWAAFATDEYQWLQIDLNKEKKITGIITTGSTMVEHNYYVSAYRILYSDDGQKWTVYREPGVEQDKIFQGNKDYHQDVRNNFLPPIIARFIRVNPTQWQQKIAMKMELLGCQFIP
Description: as §1

[4] = target: T4, human CLCP1 (CUB, LCCL-homology, coagulation factor V/VIII homology domains protein), full length, on cells (human, UniProt Q96PD2 67-775); test: flow cytometry on H460-LNM35 cells, antibody 5 ug/ml, PE anti-mouse IgG
T4 construct: also called ESDN; DCBLD2
T4 sequence: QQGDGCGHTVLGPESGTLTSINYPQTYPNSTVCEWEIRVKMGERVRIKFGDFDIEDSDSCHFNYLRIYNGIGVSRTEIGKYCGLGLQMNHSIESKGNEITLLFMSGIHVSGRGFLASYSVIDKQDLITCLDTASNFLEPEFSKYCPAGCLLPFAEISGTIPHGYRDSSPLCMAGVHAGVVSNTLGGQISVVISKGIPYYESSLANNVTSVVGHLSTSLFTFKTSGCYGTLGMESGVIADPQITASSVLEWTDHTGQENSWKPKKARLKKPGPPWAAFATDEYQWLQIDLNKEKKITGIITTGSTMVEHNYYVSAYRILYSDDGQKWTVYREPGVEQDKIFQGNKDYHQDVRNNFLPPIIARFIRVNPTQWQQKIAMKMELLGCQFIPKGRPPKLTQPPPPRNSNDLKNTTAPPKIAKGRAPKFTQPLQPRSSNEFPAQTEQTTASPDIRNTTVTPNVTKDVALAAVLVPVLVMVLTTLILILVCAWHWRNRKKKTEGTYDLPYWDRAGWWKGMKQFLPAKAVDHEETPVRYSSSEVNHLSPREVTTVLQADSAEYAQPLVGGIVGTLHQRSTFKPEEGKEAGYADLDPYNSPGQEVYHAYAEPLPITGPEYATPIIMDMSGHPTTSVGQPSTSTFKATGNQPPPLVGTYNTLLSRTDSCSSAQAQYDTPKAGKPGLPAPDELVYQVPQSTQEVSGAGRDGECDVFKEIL
Description: The antibodies prepared as described above were assessed for the reactivity to endogenous human CLCP1 by testing their reactivity to cells of high CLCP1-expressing line H460-LNM35 according to the following method. Anti-human CLCP1 antibody was purified from culture supernatant of each hybridoma clone by a conventional affinity purification method using Protein A-Sepharose. The purified antibodies were each diluted to 5 μg/ml, and the reaction intensity to H460-LNM35 was assessed by flow cytometry. In this assay, the anti-CLCP1 monoclonal antibody bound on the cell surface was detected by using a phycoerythrin-labeled anti-mouse IgG antibody. All samples were processed under the same conditions.

[5] = target: T5, endogenous human CLCP1 in H460-LNM35 cell lysate (human, UniProt Q96PD2 67-775); test: Western blot of H460-LNM35 lysate; almost no signal in CLCP1-knockdown cells
T5 construct: Same protein as m1 but solubilised: SDS lysate for Western blot (denatured, reduced) or NP-40 lysate for immunoprecipitation; also called endogenous CLCP1
T5 sequence: T4 sequence
Description: As described in the reference, Nagai H, et al., Oncogene 26: 4025-4031 (2007), a subline that constitutively expresses a CLCP1 siRNA as a short hairpin RNA (shRNA) biosynthesized in cells has been established from the high expressing CLCP1 cell line H460-LNM35. […] Western blotting was carried out using siCLCP1-3 #9 cells (CLCP1 Knockdown in FIG. 8) and H460-LNM35 cells.
2×10⁶ cells of the high expressing CLCP1 cell line H460-LNM35 and siCLCP1-3 #9 line were each suspended in lysis buffer [50 mM Tris (pH 6.8), 5% glycerol, 2% SDS], and the protein concentration was determined using the DC Protein Assay Kit (Bio-Rad). Then, 2-mercaptoethanol was added at 5.3% to the lysates. After heating, 20 μg each of the lysates were subjected to SDS-PAGE, followed by Western blotting with each of the antibodies and an HRP-labeled anti-mouse or anti-rabbit antibody. […] Meanwhile, there was almost no detectable signal in siCLCP1-3 #9 cells.

[6] = target: T6, purified partial protein containing the FA58C domain of human CLCP1 (amino acid positions 284 to 526), … (human, UniProt Q96PD2 284-526); test: ELISA, hybridoma screening on immunogen-coated plate
T6 construct: also called partial protein containing FA58C domain; region containing FA58C; not shown: myc-His tag
T6 sequence: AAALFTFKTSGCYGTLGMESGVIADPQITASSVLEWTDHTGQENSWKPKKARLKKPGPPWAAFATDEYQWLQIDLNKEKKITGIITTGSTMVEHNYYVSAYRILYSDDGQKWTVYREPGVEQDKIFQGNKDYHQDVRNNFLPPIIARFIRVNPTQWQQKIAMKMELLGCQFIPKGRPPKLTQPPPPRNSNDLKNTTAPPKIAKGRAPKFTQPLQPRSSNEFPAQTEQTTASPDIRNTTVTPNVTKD
Excerpt: After expansion culture in HT medium [RPMI1640, HT-supplement (Invitrogen; 21060-017), Penicillin, and Streptomycin] supplemented with 15% FBS, the cells were cloned into single clones by the limiting dilution method. Eleven hybridoma clones producing anti-human CLCP1 antibody were obtained by the method described above.

[7] = target: T4, human CLCP1 (CUB, LCCL-homology, …); test: flow cytometry on NCI-H460-LNM35 cells
[8] = target: T4, human CLCP1 (CUB, LCCL-homology, …); test: cell-based or functional assay
[9] = target: T7, E. coli-produced recombinant protein corresponding to aa 195-aa 457 in SEQ ID NO: 2 (human, UniProt Q96PD2 195-457); test: ELISA on purified E. coli fragment
T7 construct: pET28a expression system; vector-encoded tag residues not described
T7 sequence: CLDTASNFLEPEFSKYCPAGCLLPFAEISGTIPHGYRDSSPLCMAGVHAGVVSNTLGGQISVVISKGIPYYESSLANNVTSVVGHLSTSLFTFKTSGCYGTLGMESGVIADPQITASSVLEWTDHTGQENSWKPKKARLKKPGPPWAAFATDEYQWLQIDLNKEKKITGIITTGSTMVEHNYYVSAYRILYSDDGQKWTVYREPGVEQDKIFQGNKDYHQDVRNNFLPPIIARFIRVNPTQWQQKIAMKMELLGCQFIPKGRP
Description: as §1

[10] = target: T8, E. coli-produced recombinant protein corresponding to aa 195-aa 465 in SEQ ID NO: 2 (human, UniProt Q96PD2 195-465); test: ELISA on purified E. coli fragment
T8 construct: pET28a expression system; vector-encoded tag residues not described
T8 sequence: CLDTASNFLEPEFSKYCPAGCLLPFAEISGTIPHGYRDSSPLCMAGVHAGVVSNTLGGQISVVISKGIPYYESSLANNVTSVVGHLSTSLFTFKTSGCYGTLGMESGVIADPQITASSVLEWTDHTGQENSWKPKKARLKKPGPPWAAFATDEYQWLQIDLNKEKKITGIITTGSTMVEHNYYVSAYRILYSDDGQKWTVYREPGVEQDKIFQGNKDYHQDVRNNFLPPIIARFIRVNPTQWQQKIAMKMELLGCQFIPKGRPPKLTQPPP
Description: as §1

binding result [2]: no binding
binding result [3]: no binding
B2: 6AA-17-2 (antibody, V domains shown)
VH: EVQLQQSGAELVRPGALVKLSCKASGFNIKDYYMHWVKQRPEQGLEWIGWIDPENDNTIYDPKFQGKASITADTSSNTAYLHLSSLTSEDTAVYYCARAYGYDDYYAMEYWGQGTSVTVSS
VL: NIMMTQSPSSLAVSAGEKVTMSCKSSQSVLYSSNQKNYLAWYQQKPGQSPKLLIYWTSTRESGVPDRFTGSGSGTDFTLTISSVQAEDLAIYYCHQYLYSYTFGGGTKL
notes: Mouse monoclonal raised against the partial protein containing the FA58C domain; also called Antibody 3

binding result [7]: binds
B4: chimeric FA17-9 antibody (antibody, V domains shown)
VH: EVQLQQSGPELVKPGASVKMSCKASGYTFTTYVMHWVKQKPGQGLEWIGYINPYNDGTKYNEKFKGKATLTSDKSSSTAYMELSSLTSEDSAVYYCARGANYYGSSYNWSFDVWGAGTTVTVSS
VL: DIQMTQSPSSLSASLGGKVTITCKASQDINKYIAWYQHKPGEGPRLLIHYTSTLQPGIPSRFSGSGSGRDYSFSISNLEPEDIATYYCLQYDYLWTFGGGTKL
notes: Variable regions of FA17-9 joined to constant regions derived from human IgG1 (LONZA vector)

binding result [2]: no binding
binding result [3]: no binding
binding result [9]: no binding
binding result [10]: no binding
B6: FA19-1 (antibody, V domains shown)
VH: B4 VH with V33I, K67E, S106N
VL: B4 VL with K24R, E42K, Y50H, S52C
notes: Mouse monoclonal; also called antibody No. FA19-1; Antibody 2

Continued, binder first:

B1: serine-substituted humanized FA19-1 antibody (FA19RHA and serine-substituted light chain) (antibody, V domains shown)
VH: QVQLVQSGAEVKKPGASVKVSCKASGYTFTTYIMHWVRQAPGQRLEWIGYINPYNDGTKYNEKFKGRVTVTRDTSANTAYMELSSLKSEDTAVYYCARGANYYGSNYNWSFDVWGQGTLVTVSS
VL: DIQMTQSPSSLSASVGDRVTITCRASQDINKYIAWYQQKPGKAPKLLIYHTSTLQPGVPSRFSGSGSGTDFTLTISSLQPEDFATYYCLQYDYLWTFGGGTKVEIK
notes: it is the cysteine of the CDR2 motif HTCTLQP; also called serine-substituted humanized antibody; serine-substituted antibody
binding result [1]: binds

B3: FA17-9 (antibody, V domains shown)
VH: B4 VH
VL: B4 VL
notes: Mouse monoclonal; also called antibody No. FA17-9; Antibody 1
binding result [4]: binds
binding result [5]: binds
binding result [6]: binds

B5: chimeric FA19-1 antibody (antibody, V domains shown)
VH: B4 VH with V33I, K67E, S106N
VL: B4 VL with K24R, E42K, Y50H, S52C
ADCC, % cytotoxicity (lactate dehydrogenase release), A549 targets, antibody 10 ug/ml, E/T ratio 50, five donors [8]: 47.1%
ADCC, % cytotoxicity (lactate dehydrogenase release), NCI-H460-LNM35 targets, antibody 10 ug/ml, E/T ratio 50 [8]: 32.4%
